B1: Hairpin Ribozyme (parent)
chain: GUCCUCUUUCACGUGCGCGUGAAAGAGAGAAGUGAACCAGAGAAACACACGUUGUGGUAUAUUACCUGGUA

Variants of: B1
Assay: self-cleavage, relative activity (ratio to wild type); higher = more cleavage; co-transcriptional

Variant	self-cleavage
GUCCUCUUUCACGUGCGCGUGAAAGAGAGAAGUGAGCCAGAGAAACACACGUUGUGGUAUCUUACCUGGUA [A36G A61C]	0.328
GUCCUCUUUCACGUGCGCGUGAAAGAGAGAAGUGAGCCAGAGAAACACACGUUGUGGUAUAUUCCCUGGUA [A36G A64C]	0.17
GUCCUCUUUCACGUGCGCGUGAAAGAGAGAAGUGAGCCAGAGAAACACACGUUGUGGUAUAUUACCUGGUC [A36G A71C]	1.23
GUCCUCUUUCACGUGCGCGUGAAAGAGAGAAGUGAGGCAGAGAAACACACGUUGUGGUAUAUUACCUGGUA [A36G C37G]	0.287
GUCCUCUUUCACGUGCGCGUGAAAGAGAGAAGUGAGCAAGAGAAACACACGUUGUGGUAUAUUACCUGGUA [A36G C38A]	0.146
GUCCUCUUUCACGUGCGCGUGAAAGAGAGAAGUGAGCUAGAGAAACACACGUUGUGGUAUAUUACCUGGUA [A36G C38U]	0.523
GUCCUCUUUCACGUGCGCGUGAAAGAGAGAAGUGAGCCAGAGAAAAACACGUUGUGGUAUAUUACCUGGUA [A36G C46A]	0.0586
GUCCUCUUUCACGUGCGCGUGAAAGAGAGAAGUGAGCCAGAGAAACAGACGUUGUGGUAUAUUACCUGGUA [A36G C48G]	0.259
GUCCUCUUUCACGUGCGCGUGAAAGAGAGAAGUGAGCCAGAGAAACACAGGUUGUGGUAUAUUACCUGGUA [A36G C50G]	0.382
GUCCUCUUUCACGUGCGCGUGAAAGAGAGAAGUGAGCCAGAGAAACACAUGUUGUGGUAUAUUACCUGGUA [A36G C50U]	0.407
GUCCUCUUUCACGUGCGCGUGAAAGAGAGAAGUGAGCCAGAGAAACACACGUUGUGGUAUAUUACUUGGUA [A36G C66U]	0.482
GUCCUCUUUCACGUGCGCGUGAAAGAGAGAAGUGAGCCAGAAAAACACACGUUGUGGUAUAUUACCUGGUA [A36G G42A]	0.23
GUCCUCUUUCACGUGCGCGUGAAAGAGAGAAGUGAGCCAGAGAAACACACCUUGUGGUAUAUUACCUGGUA [A36G G51C]	0.629
GUCCUCUUUCACGUGCGCGUGAAAGAGAGAAGUGAGCCAGAGAAACACACGUUUUGGUAUAUUACCUGGUA [A36G G54U]	0.816
GUCCUCUUUCACGUGCGCGUGAAAGAGAGAAGUGAGCCAGAGAAACACACGUUGUAGUAUAUUACCUGGUA [A36G G56A]	0.146
GUCCUCUUUCACGUGCGCGUGAAAGAGAGAAGUGAGCCAGAGAAACACACGUUGUCGUAUAUUACCUGGUA [A36G G56C]	0.0421
GUCCUCUUUCACGUGCGCGUGAAAGAGAGAAGUGAGCCAGAGAAACACACGUUGUGUUAUAUUACCUGGUA [A36G G57U]	0.317
GUCCUCUUUCACGUGCGCGUGAAAGAGAGAAGUGAGCCAGAGAAACACACGUUGUGGUAUAUUACCUGCUA [A36G G69C]	0.449
GUCCUCUUUCACGUGCGCGUGAAAGAGAGAAGUGAGCCAGAGAAACACACGAUGUGGUAUAUUACCUGGUA [A36G U52A]	0.791

Variant	self-cleavage
GUCCUCUUUCACGUGCGCGUGAAAGAGAGAAGUGAGCCAGAGAAACACACGUAGUGGUAUAUUACCUGGUA [A36G U53A]	1.2
GUCCUCUUUCACGUGCGCGUGAAAGAGAGAAGUGAGCCAGAGAAACACACGUGGUGGUAUAUUACCUGGUA [A36G U53G]	0.507
GUCCUCUUUCACGUGCGCGUGAAAGAGAGAAGUGAGCCAGAGAAACACACGUUGUGGAAUAUUACCUGGUA [A36G U58A]	0.836
GUCCUCUUUCACGUGCGCGUGAAAGAGAGAAGUGAGCCAGAGAAACACACGUUGUGGCAUAUUACCUGGUA [A36G U58C]	1
GUCCUCUUUCACGUGCGCGUGAAAGAGAGAAGUGAGCCAGAGAAACACACGUUGUGGUAAAUUACCUGGUA [A36G U60A]	0.779
GUCCUCUUUCACGUGCGCGUGAAAGAGAGAAGUGAGCCAGAGAAACACACGUUGUGGUACAUUACCUGGUA [A36G U60C]	1.1
GUCCUCUUUCACGUGCGCGUGAAAGAGAGAAGUGAGCCAGAGAAACACACGUUGUGGUAGAUUACCUGGUA [A36G U60G]	0.62
GUCCUCUUUCACGUGCGCGUGAAAGAGAGAAGUGAGCCAGAGAAACACACGUUGUGGUAUAGUACCUGGUA [A36G U62G]	0.221
GUCCUCUUUCACGUGCGCGUGAAAGAGAGAAGUGAGCCAGAGAAACACACGUUGUGGUAUAUGACCUGGUA [A36G U63G]	0.3
GUCCUCUUUCACGUGCGCGUGAAAGAGAGAAGUGAGCCAGAGAAACACACGUUGUGGUAUAUUACCAGGUA [A36G U67A]	0.195
GUCCUCUUUCACGUGCGCGUGAAAGAGAGAAGUGAUCCCGAGAAACACACGUUGUGGUAUAUUACCUGGUA [A36U A39C]	0.084
GUCCUCUUUCACGUGCGCGUGAAAGAGAGAAGUGAUCCAGCGAAACACACGUUGUGGUAUAUUACCUGGUA [A36U A41C]	0.654
GUCCUCUUUCACGUGCGCGUGAAAGAGAGAAGUGAUCCAGAGCAACACACGUUGUGGUAUAUUACCUGGUA [A36U A43C]	0.0574
GUCCUCUUUCACGUGCGCGUGAAAGAGAGAAGUGAUCCAGAGGAACACACGUUGUGGUAUAUUACCUGGUA [A36U A43G]	0.138
GUCCUCUUUCACGUGCGCGUGAAAGAGAGAAGUGAUCCAGAGUAACACACGUUGUGGUAUAUUACCUGGUA [A36U A43U]	0.0848
GUCCUCUUUCACGUGCGCGUGAAAGAGAGAAGUGAUCCAGAGACACACACGUUGUGGUAUAUUACCUGGUA [A36U A44C]	0.112
GUCCUCUUUCACGUGCGCGUGAAAGAGAGAAGUGAUCCAGAGAGACACACGUUGUGGUAUAUUACCUGGUA [A36U A44G]	0.183
GUCCUCUUUCACGUGCGCGUGAAAGAGAGAAGUGAUCCAGAGAACCACACGUUGUGGUAUAUUACCUGGUA [A36U A45C]	0.224
GUCCUCUUUCACGUGCGCGUGAAAGAGAGAAGUGAUCCAGAGAAGCACACGUUGUGGUAUAUUACCUGGUA [A36U A45G]	0.106
